Among the data in paper PMC7430637 are Kd and response (fraction bound) values, retold here.

Experiment [1] deals with T1, FAM-H3(1–15)K9me3 peptide.
T1 chain: ARTKQTARKSTGGKA
Nature of the experiment: fluorescence polarisation; FAM-labelled H3(1–15) peptide, recombinant protein titrated; room temperature; as described in ref. 28. On the technique in general: In fluorescence polarisation assays a small probe gives low polarisation when free and higher when bound to something large.

Experiment [2] deals with T2, H3(1-15)K9me3-FAM peptide (C-terminally fluorescein-labelled).
T2 chain: ARTKQTARKSTGGKA
Description: fluorescence polarisation; FAM-labelled H3(1-15) peptide, recombinant protein titrated; RT; as described (ref. 28).

The target of experiment [3] is T3, FAM-H3(1-15)K9me3 peptide (N-terminally fluorescein-labelled).
T3 chain: ARTKQTARKSTGGKA
The experiment is described as above.

Experiment [4] deals with T4, H3(1-15)unmodified-FAM peptide (C-terminally fluorescein-labelled).
T4 chain: ARTKQTARKSTGGKA
Described as above.

In experiment [5] the target is T1, FAM-H3(1–15)K9me3 peptide. Description: fluorescence polarization. As to conditions: chain shown with the change; read at the highest protein concentration of the titration, about 50 µM on the x axis; parent: est. 0.28; read off a plot.

B1: hTTD-PHD (domain or fragment)
chain: MWDETELGLYKVNEYVDARDTNMGAWFEAQVVRVTRKAPSRDEPCSSTSRPALEEDVIYHVKYDDYPENGVVQMNSRDVRARARTIIKWQDLEVGQVVMLNYNPDNPKERGFWYDAEISRKRETRTARELYANVVLGDDSLNDCRIIFVDEVFKIERPGEGSPMVDNPMRRKSGPSCKHCKDDVNRLCRVCACHLCGGRQDPDKQLMCDECDMAFHIYCLDPPLSSVPSEDEWYCPECRND
modifications: not checked
The Kd is a measure of binding affinity in units of concentration. With B1, the Kd in experiment [1] turned out to be 16.2 µM.

B2: hTTD-PHD module carrying the nine amino acid insertion of mLinker 2 V1 (domain or fragment)
chain: MWDETELGLYKVNEYVDARDTNMGAWFEAQVVRVTRKAPSRDEPCSSTSRPALEEDVIYHVKYDDYPENGVVQMNSRDVRARARTIIKWQDLEVGQVVMLNYNPDNPKERGFWYDAEISRKRETRTARELYANVVLGDDSLNDCRIIFVDEVFKIERPGEGSPMVDNPMRPPPALRNTGKSGPSCKHCKDDVNRLCRVCACHLCGGRQDPDKQLMCDECDMAFHIYCLDPPLSSVPSEDEWYCPECRNDASEVVLAGE
modifications: not checked
B2: the equilibrium dissociation constant (Kd) in experiment [2] is 6.9 µM; in experiment [3] it was over 50 µM; in experiment [4] it was 4.5 µM.

B3: hTTD-PHD, mLinker2 V1* (domain or fragment)
chain: MWDETELGLYKVNEYVDARDTNMGAWFEAQVVRVTRKAPSRDEPCSSTSRPALEEDVIYHVKYDDYPENGVVQMNSRDVRARARTIIKWQDLEVGQVVMLNYNPDNPKERGFWYDAEISRKRETRTARELYANVVLGDDSLNDCRIIFVDEVFKIERPGEGSPMVDNPMRPPPALRNTGKSGPSCKHCKDDVNRLCRVCACHLCGGRQDPDKQLMCDECDMAFHIYCLDPPLSSVPSEDEWYCPECRNDASEVVLAGE
modifications: not checked
Turning to B3, the Kd in experiment [1] was over 100 µM.

B4: mTTD-PHD V1 P293A; P294A; P295A (protein)
chain: VWEDTDLGLYKVNEYVDVRDNIFGAWFEAQVVQVQKRALSEDEPCSSSAVKTSEDDIMYHVKYDDYPEHGVDIVKAKNVRARARTVIPWENLEVGQVVMANYNVDYPRKRGFWYDVEICRKRQTRTARELYGNIRLLNDSQLNNCRIMFVDEVLMIELPKERRPLIASPSQAAAALRNTGKSGPSCRFCKDDENKPCRKCACHVCGGREAPEKQLLCDECDMAFHLYCLKPPLTSVPPEPEWYCPSCRTDSSEVVQAGE
On to B4, for which, in experiment [5], the response (fraction bound) came out at 0.87.

B5: mTTD-PHD V1 K302A; S303A (protein)
chain: VWEDTDLGLYKVNEYVDVRDNIFGAWFEAQVVQVQKRALSEDEPCSSSAVKTSEDDIMYHVKYDDYPEHGVDIVKAKNVRARARTVIPWENLEVGQVVMANYNVDYPRKRGFWYDVEICRKRQTRTARELYGNIRLLNDSQLNNCRIMFVDEVLMIELPKERRPLIASPSQPPPALRNTGAAGPSCRFCKDDENKPCRKCACHVCGGREAPEKQLLCDECDMAFHLYCLKPPLTSVPPEPEWYCPSCRTDSSEVVQAGE
On to B5, for which the response (fraction bound) in experiment [5] came out at 0.2.

B6: mTTD-PHD V1 R298A (protein)
chain: VWEDTDLGLYKVNEYVDVRDNIFGAWFEAQVVQVQKRALSEDEPCSSSAVKTSEDDIMYHVKYDDYPEHGVDIVKAKNVRARARTVIPWENLEVGQVVMANYNVDYPRKRGFWYDVEICRKRQTRTARELYGNIRLLNDSQLNNCRIMFVDEVLMIELPKERRPLIASPSQPPPALANTGKSGPSCRFCKDDENKPCRKCACHVCGGREAPEKQLLCDECDMAFHLYCLKPPLTSVPPEPEWYCPSCRTDSSEVVQAGE
In the case of B6, the response (fraction bound) in experiment [5] was 0.97.
